± gives the uncertainty stated by the source.

The data set is described as follows: abundance fitness (aPCA) (normalised: wild type 0, dead -1); higher = more abundant; growth selection in yeast, the domain comes from the species named. Conditions: Homo sapiens.
In turn, “NEDD4-like E3 ubiquitin-protein ligase WWP2 G458H, O00308” came in with an abundance fitness of -0.234 ± 0.068.

Substance “NEDD4-like E3 ubiquitin-protein ligase WWP2 G458I, O00308” came in with an abundance fitness of -1.18 ± 0.19. Under “NEDD4-like E3 ubiquitin-protein ligase WWP2 G458K, O00308” stands -0.049 ± 0.045; under “NEDD4-like E3 ubiquitin-protein ligase WWP2 G458L, O00308”, -0.283 ± 0.041; under “NEDD4-like E3 ubiquitin-protein ligase WWP2 G458M, O00308”, -0.148 ± 0.041. Substance “NEDD4-like E3 ubiquitin-protein ligase WWP2 G458N, O00308” showed an abundance fitness of -0.308 ± 0.093. “NEDD4-like E3 ubiquitin-protein ligase WWP2 G458P, O00308” gave an abundance fitness of -1.03 ± 0.064. “NEDD4-like E3 ubiquitin-protein ligase WWP2 G458Q, O00308” came in with an abundance fitness of -0.244 ± 0.064. With “NEDD4-like E3 ubiquitin-protein ligase WWP2 G458R, O00308”, the abundance fitness is -0.139 ± 0.046. To “NEDD4-like E3 ubiquitin-protein ligase WWP2 G458S, O00308” belongs -0.176 ± 0.055; to “NEDD4-like E3 ubiquitin-protein ligase WWP2 G458T, O00308”, -0.505 ± 0.058.

Turning to “NEDD4-like E3 ubiquitin-protein ligase WWP2 G458V, O00308”, the abundance fitness is -0.992 ± 0.065.

For “NEDD4-like E3 ubiquitin-protein ligase WWP2 G458W, O00308”, the abundance fitness was -0.461 ± 0.045.

As to “NEDD4-like E3 ubiquitin-protein ligase WWP2 G458Y, O00308”, the abundance fitness is -0.262 ± 0.064. Take “NEDD4-like E3 ubiquitin-protein ligase WWP2 G478A, O00308”: the abundance fitness was determined as 0.035 ± 0.058. To “NEDD4-like E3 ubiquitin-protein ligase WWP2 G478C, O00308” belongs -0.001 ± 0.039; to “NEDD4-like E3 ubiquitin-protein ligase WWP2 G478D, O00308”, -0.036 ± 0.05. The substance “NEDD4-like E3 ubiquitin-protein ligase WWP2 G478E, O00308” displayed an abundance fitness of -0.036 ± 0.063. To “NEDD4-like E3 ubiquitin-protein ligase WWP2 G478F, O00308” belongs -0.014 ± 0.046; to “NEDD4-like E3 ubiquitin-protein ligase WWP2 G478H, O00308”, -0.045 ± 0.069. As to “NEDD4-like E3 ubiquitin-protein ligase WWP2 G478I, O00308”, the abundance fitness amounted to 0.136 ± 0.073.

In the case of “NEDD4-like E3 ubiquitin-protein ligase WWP2 G478K, O00308”, the abundance fitness was determined as 0.061 ± 0.067.

In turn, “NEDD4-like E3 ubiquitin-protein ligase WWP2 G478L, O00308” gave an abundance fitness of 0.012 ± 0.035. “NEDD4-like E3 ubiquitin-protein ligase WWP2 G478M, O00308” registered an abundance fitness of -0.08 ± 0.057.

“NEDD4-like E3 ubiquitin-protein ligase WWP2 G478N, O00308”: the abundance fitness was -0.136 ± 0.068. Under “NEDD4-like E3 ubiquitin-protein ligase WWP2 G478P, O00308” stands -0.005 ± 0.052.

“NEDD4-like E3 ubiquitin-protein ligase WWP2 G478Q, O00308” had an abundance fitness of 0.038 ± 0.048. Under “NEDD4-like E3 ubiquitin-protein ligase WWP2 G478R, O00308” stands 0.032 ± 0.047; under “NEDD4-like E3 ubiquitin-protein ligase WWP2 G478S, O00308”, 0.019 ± 0.033.

“NEDD4-like E3 ubiquitin-protein ligase WWP2 G478T, O00308” gave an abundance fitness of 0.077 ± 0.059. With “NEDD4-like E3 ubiquitin-protein ligase WWP2 G478V, O00308”, the abundance fitness is -0.058 ± 0.047. The substance “NEDD4-like E3 ubiquitin-protein ligase WWP2 G478W, O00308” gave an abundance fitness of -0.017 ± 0.032. On to “NEDD4-like E3 ubiquitin-protein ligase WWP2 G478Y, O00308”, for which the abundance fitness is -0.084 ± 0.068. On to “NEDD4-like E3 ubiquitin-protein ligase WWP2 G482A, O00308”, for which the abundance fitness was -0.033 ± 0.042. In turn, “NEDD4-like E3 ubiquitin-protein ligase WWP2 G482C, O00308” came in with an abundance fitness of -0.15 ± 0.062. On to “NEDD4-like E3 ubiquitin-protein ligase WWP2 G482E, O00308”, for which the abundance fitness was -0.064 ± 0.049. To “NEDD4-like E3 ubiquitin-protein ligase WWP2 G482F, O00308” belongs -0.124 ± 0.06. To “NEDD4-like E3 ubiquitin-protein ligase WWP2 G482H, O00308” belongs -0.019 ± 0.076. To “NEDD4-like E3 ubiquitin-protein ligase WWP2 G482I, O00308” belongs -0.077 ± 0.046; to “NEDD4-like E3 ubiquitin-protein ligase WWP2 G482K, O00308”, -0.037 ± 0.068. Turning to “NEDD4-like E3 ubiquitin-protein ligase WWP2 G482L, O00308”, the abundance fitness was -0.086 ± 0.044. Under “NEDD4-like E3 ubiquitin-protein ligase WWP2 G482M, O00308” stands -0.121 ± 0.061; under “NEDD4-like E3 ubiquitin-protein ligase WWP2 G482N, O00308”, -0.007 ± 0.039; under “NEDD4-like E3 ubiquitin-protein ligase WWP2 G482P, O00308”, -0.032 ± 0.07. To “NEDD4-like E3 ubiquitin-protein ligase WWP2 G482Q, O00308” belongs -0.009 ± 0.057; to “NEDD4-like E3 ubiquitin-protein ligase WWP2 G482R, O00308”, -0.097 ± 0.043; to “NEDD4-like E3 ubiquitin-protein ligase WWP2 G482S, O00308”, -0.025 ± 0.033.

With “NEDD4-like E3 ubiquitin-protein ligase WWP2 G482T, O00308”, the abundance fitness was -0.019 ± 0.06. As for “NEDD4-like E3 ubiquitin-protein ligase WWP2 G482V, O00308”, the abundance fitness was -0.108 ± 0.043. Under “NEDD4-like E3 ubiquitin-protein ligase WWP2 G482W, O00308” stands -0.151 ± 0.05. Substance “NEDD4-like E3 ubiquitin-protein ligase WWP2 G482Y, O00308” registered an abundance fitness of -0.089 ± 0.045. Under “NEDD4-like E3 ubiquitin-protein ligase WWP2 G486A, O00308” stands 0.028 ± 0.038; under “NEDD4-like E3 ubiquitin-protein ligase WWP2 G486C, O00308”, -0.023 ± 0.056. Take “NEDD4-like E3 ubiquitin-protein ligase WWP2 G486E, O00308”: the abundance fitness came out at 0.044 ± 0.042. Under “NEDD4-like E3 ubiquitin-protein ligase WWP2 G486F, O00308” stands -0.205 ± 0.073; under “NEDD4-like E3 ubiquitin-protein ligase WWP2 G486H, O00308”, -0.135 ± 0.062; under “NEDD4-like E3 ubiquitin-protein ligase WWP2 G486I, O00308”, -0.028 ± 0.072.

The values above are taken from the Human Domainome abundance scans (Beltran et al. 2025).
